In patent US20250011454A1 (published 2025):

Experiments:
Experiment in all cases: cell-based or functional assay
PSMA = PSMA (UniProt Q04609 44-750, limits assumed)
KLK2 [1] = target: T1, KLK2 (UniProt P20151 25-261, limits assumed)
KLK2 [2] = target: T1, KLK2; remark: listed apart in the source

Chain of PSMA (Q04609 44-750 limits assumed): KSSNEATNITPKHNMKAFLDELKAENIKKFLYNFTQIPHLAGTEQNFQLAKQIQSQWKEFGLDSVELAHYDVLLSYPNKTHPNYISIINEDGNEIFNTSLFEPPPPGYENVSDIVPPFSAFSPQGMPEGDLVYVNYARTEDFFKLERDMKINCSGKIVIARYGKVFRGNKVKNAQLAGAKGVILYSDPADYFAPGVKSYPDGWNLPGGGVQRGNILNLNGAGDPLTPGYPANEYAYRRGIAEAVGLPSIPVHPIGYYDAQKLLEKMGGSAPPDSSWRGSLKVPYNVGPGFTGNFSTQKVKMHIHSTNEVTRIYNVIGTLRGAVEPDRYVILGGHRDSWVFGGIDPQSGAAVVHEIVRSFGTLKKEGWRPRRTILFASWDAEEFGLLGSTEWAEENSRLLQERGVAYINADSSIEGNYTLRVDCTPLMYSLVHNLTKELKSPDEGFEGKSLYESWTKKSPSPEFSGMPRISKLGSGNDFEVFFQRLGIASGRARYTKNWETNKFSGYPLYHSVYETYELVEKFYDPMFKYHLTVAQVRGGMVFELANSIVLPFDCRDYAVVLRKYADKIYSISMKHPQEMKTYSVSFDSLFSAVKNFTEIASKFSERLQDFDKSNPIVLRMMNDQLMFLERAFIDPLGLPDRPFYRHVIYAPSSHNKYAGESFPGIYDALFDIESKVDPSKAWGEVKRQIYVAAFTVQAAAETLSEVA
T1 sequence (P20151 25-261 limits assumed): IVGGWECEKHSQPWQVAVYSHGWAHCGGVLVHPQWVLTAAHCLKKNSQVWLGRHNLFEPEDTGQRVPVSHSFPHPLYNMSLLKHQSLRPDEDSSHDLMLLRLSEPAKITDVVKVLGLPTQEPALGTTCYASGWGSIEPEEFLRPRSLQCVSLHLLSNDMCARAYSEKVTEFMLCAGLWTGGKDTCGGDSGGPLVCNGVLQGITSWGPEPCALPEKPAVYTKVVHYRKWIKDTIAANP

B1: PSMB952 (antibody, V domains shown)
VH: EVQLVESGGGLVQPGGSLRLSCAASGFTFSSYAMSWVRQAPGKGLEWVSAISGGIGSTYYADSVKGRFTISRDNSKNTLWLQMNSLRAEDTAVYYCAKDGVGATPYYFDYWGQGTLVTVSS
VL: QSVLTQPPSVSAAPGQKVTISCSGSSSNIGINYVSWYQQLPGTAPKLLIYDNNKRPSGIPDRFSGSKSGTSATLGITGLQTGDEADYYCGTWDSSLSAVVFGGGTKLTVL
PSMA
  In vitro ADCC killing EC50 (M), C42B cells, NK cells, 24 hour: 2.45e-11 M
  In vitro ADCC killing EC50 (M), C42B cells, PBMC, 6 hour: 3.51e-10 M
  In vitro ADCC killing EC50 (M), LNCaP cells, NK cells, 24 hour: 4.59e-11 M
  In vitro ADCC killing EC50 (M), LNCaP cells, PBMC, 6 hour: 2.01e-10 M

B2: PSMB956 (antibody, V domains shown)
VH: EVQLVESGGGLVQPGGSLRLSCAASGFTFSSYAMSWVRQAPGKGLEWVSAISGGSGSTYYADSVKGRFTISRDNSKNTLYLQMNSLRAEDSAVYYCAKDGVGATPYYFDYWGQGTLVTVSS
VL: QSVLTQPPSVSAAPGQKVTISCSGSSSNIGINYVSWYQQLPGTAPKLLIYDNNKRPSGIPDRFSGSKSGTSATLGITGLQTGDEADYYCGTWDSSLSAVVFGGGTKLTVL
PSMA
  In vitro ADCC killing EC50 (M), C42B cells, NK cells, 24 hour: 9.96e-12 M
  In vitro ADCC killing EC50 (M), C42B cells, PBMC, 6 hour: 4.23e-10 M
  In vitro ADCC killing EC50 (M), LNCaP cells, NK cells, 24 hour: 3.58e-11 M
  In vitro ADCC killing EC50 (M), LNCaP cells, PBMC, 6 hour: 1.52e-10 M

B3: KL2B870 (antibody, human IgG1, kappa)
heavy: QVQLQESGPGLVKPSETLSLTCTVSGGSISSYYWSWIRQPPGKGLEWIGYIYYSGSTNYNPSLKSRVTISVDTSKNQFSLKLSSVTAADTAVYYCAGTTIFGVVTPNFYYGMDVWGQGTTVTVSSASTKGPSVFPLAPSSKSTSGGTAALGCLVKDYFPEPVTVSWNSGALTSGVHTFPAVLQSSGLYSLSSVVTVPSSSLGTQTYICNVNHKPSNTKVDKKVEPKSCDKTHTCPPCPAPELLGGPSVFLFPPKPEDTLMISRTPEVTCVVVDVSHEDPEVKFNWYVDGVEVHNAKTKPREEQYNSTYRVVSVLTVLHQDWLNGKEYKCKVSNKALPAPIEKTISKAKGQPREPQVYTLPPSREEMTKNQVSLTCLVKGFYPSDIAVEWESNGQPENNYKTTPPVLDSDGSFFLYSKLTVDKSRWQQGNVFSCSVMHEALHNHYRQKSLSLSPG
light: DIQMTQSPSFLSASVGDRVTITCRASQGISSYLAWYQQKPGKAPKFLIYAASTLQSGVPSRFSGSGSGTEFTLTISSLQPEDFATYYCQQLNSYPLTFGGGTKVEIKRTVAAPSVFIFPPSDEQLKSGTASVVCLLNNFYPREAKVQWKVDNALQSGNSQESVTEQDSKDSTYSLSSTLTLSKADYEKHKVYACEVTHQGLSSPVTKSFNRGEC
KLK2 [1]
  ADCC activity, cell killing of VCaP cells by PBMC: ~73%
KLK2 [2]
  EC50 (M), ADCC killing of VCaP cells by PBMC at 48 hour: 1e-09 M

B4: KL2B872.CLF (antibody, human IgG1, kappa)
heavy: not shown
light: DIQMTQSPSFLSASVGDRVTITCRASQGISSYLAWYQQKPGKAPKFLIYAASTLQSGVPSRFSGSGSGTEFTLTISSLQPEDFATYYCQQLNSYPLTFGGGTKVEIKRTVAAPSVFIFPPSDEQLKSGTASVVCLLNNFYPREAKVQWKVDNALQSGNSQESVTEQDSKDSTYSLSSTLTLSKADYEKHKVYACEVTHQGLSSPVTKSFNRGEC
KLK2 [1]
  ADCC activity, cell killing of VCaP cells by PBMC: ~85%
KLK2 [2]
  EC50 (M), ADCC killing of VCaP cells by PBMC at 48 hour: 4.12e-10 M

B5: KL2B870.CLF (antibody, human IgG1, kappa)
heavy: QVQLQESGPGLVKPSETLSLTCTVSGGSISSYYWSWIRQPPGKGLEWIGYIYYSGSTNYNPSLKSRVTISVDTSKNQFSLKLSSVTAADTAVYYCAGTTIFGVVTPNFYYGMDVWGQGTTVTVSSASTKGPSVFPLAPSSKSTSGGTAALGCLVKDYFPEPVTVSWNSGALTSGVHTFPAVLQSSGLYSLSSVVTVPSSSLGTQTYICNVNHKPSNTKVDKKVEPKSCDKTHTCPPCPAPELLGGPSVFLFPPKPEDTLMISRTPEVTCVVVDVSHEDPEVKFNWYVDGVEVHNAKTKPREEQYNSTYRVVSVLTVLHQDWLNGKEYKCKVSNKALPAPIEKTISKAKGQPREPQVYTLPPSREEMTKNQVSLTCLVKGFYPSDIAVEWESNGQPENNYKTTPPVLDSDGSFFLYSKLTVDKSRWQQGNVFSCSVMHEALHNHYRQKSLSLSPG
light: DIQMTQSPSFLSASVGDRVTITCRASQGISSYLAWYQQKPGKAPKFLIYAASTLQSGVPSRFSGSGSGTEFTLTISSLQPEDFATYYCQQLNSYPLTFGGGTKVEIKRTVAAPSVFIFPPSDEQLKSGTASVVCLLNNFYPREAKVQWKVDNALQSGNSQESVTEQDSKDSTYSLSSTLTLSKADYEKHKVYACEVTHQGLSSPVTKSFNRGEC
KLK2 [1]
  ADCC activity, cell killing of VCaP cells by PBMC: ~89%
KLK2 [2]
  EC50 (M), ADCC killing of VCaP cells by PBMC at 48 hour: 3.54e-10 M
